Experimental data reported in patent publication US20100092488A1.

Target: T1, MK (endogenous, in the culture of CD4-positive T cells from wild-type murine spleens with APC) (UniProt P12025)
T1 sequence (looked up): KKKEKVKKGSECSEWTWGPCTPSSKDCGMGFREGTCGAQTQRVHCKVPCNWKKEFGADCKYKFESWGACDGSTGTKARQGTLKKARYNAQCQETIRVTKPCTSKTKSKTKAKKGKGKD
Assay: cell-based or functional assay

B1: anti-MK antibody (IP-13) (antibody, from another filing, V domains shown)
VH: EVQLQQSGPELVKPGASVKIPCKASGYTFTDYNMGWVKQSHGKSLEWIGDINPNNGGTIYNQKFKGKATLTVDKSSSTAYMELRSLTSEDTAVYYCARWSYSNPYFDYWGQGTTLTVSS
VL: SIVMTQTPNFLLVSAGDRVTITCKASQSVSNDVSWYQQKPGQSPKLLIYYASNLYTGVPDRFTGSGYGTDFTFTISTVQAEDLAVYFCQQDYSSPWTFGGGTKLEIK
  proportion of CD4-positive, CD25-positive T cells among the CD4-positive T cells (flow cytometer; IP-13 30 µg/mL, MOG35-55 and APC, five days): 4%
